Results: patent US20250277030A1 (Zymeworks, published 2025)

T1: human sodium-dependent phosphate transporter 2B (NaPi2b) (human, UniProt O95436 1-690)
T1 construct: UniProt ID is given as 095436 [sic]; also called hNaPi2b; Hu NaPi2b
T1 sequence: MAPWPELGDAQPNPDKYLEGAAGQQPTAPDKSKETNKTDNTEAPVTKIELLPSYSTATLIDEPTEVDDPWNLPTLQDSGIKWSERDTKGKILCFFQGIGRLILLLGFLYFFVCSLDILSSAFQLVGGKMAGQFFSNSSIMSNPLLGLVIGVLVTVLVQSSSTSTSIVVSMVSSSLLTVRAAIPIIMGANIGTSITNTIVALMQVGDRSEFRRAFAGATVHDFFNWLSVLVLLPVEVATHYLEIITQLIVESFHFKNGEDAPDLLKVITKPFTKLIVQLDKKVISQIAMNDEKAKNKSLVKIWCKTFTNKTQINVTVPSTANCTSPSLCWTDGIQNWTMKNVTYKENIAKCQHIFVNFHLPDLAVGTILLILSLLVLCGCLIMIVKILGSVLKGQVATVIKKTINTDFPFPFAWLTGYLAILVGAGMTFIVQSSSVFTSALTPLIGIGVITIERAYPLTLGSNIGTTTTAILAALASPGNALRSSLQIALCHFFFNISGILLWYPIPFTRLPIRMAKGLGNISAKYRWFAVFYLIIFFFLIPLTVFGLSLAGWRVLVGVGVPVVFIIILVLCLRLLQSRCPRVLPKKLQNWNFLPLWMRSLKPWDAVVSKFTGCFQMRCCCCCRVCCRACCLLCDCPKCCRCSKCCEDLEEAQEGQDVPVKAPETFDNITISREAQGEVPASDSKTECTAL


What was measured:
[1] = molecular target: T1, human sodium-dependent phosphate …; test: flow cytometry, IGROV-1 cells (endogenous NaPi2b), 24 h at 4 °C
Procedure: (§1) IGROV-1 cells express endogenous NaPi2b at a high level.
(§2) Briefly, cells were seeded at 50,000 cells/well in conical-bottom 96-well plates and treated with test antibody for 24 hours at 4° C. to prevent internalization. […] Following incubation, cells were washed and stained with anti-Human IgG Fc AF647 conjugate (Jackson Immuno Research Labs, West Grove, PA; Cat. No. 109-605-098) at 4° C. for 30 min. Following incubation and washing, fluorescence was detected by flow cytometry on a BD LSRFortessa™ Cell Analyzer (BD Biosciences, Franklin Lake, NJ) with 1,000 minimum events collected per well. The AF647/APC-A GeoMean (fluorescence signal geometric mean, proportional to anti-Human AF647 binding) was calculated for the live cell population using FlowJo™ Version 10.8.1 (BD Biosciences, Franklin Lake, NJ) and plotted for each test antibody using GraphPad Prism Version 9 (GraphPad Software, San Diego, CA).

[2] = molecular target: T1, human sodium-dependent phosphate …; test: flow cytometry, IGROV-1 cells (endogenous NaPi2b), 24 h at 4 °C; apparent Kd
Procedure: as §1, §2

[3] = molecular target: T1, human sodium-dependent phosphate …; test: cell-based or functional assay

| Binder | Bmax (MFI) [1] [MFI] | Kd [2] [nM] | In vitro cytotoxicity EC50 (nM), HCC-78 [3] [nM] | In vitro cytotoxicity EC50 (nM), IGROV-1 [3] [nM] | In vitro cytotoxicity EC50 (nM), OVCAR-3 [3] [nM] |
| --- | --- | --- | --- | --- | --- |
| v29455 humanized anti-NaPi2b antibody (H2L2) (antibody, human IgG1, kappa, V domains shown) VH: QVQLVQSGAEVKKPGASVKVSCKASGFTFTSYNVHWVRQAPGQGLEWIAAISPGNGDLSYAQKFQGRVTMTVDTSTSTVYMELSSLRSEDTAVYYCARGRTGMGAVDYWGQGTLVTVSS VL: DVQMTQSPSSLSASVGDRVTITCRASQDVYSYLNWYQQKPGKAVKLLIYYTSRLQSGVPSRFSGSGSGTDYTLTISSLQPEDFATYYCQQYNIFPWTFGQGTKLEIKR | 41900 | 1.18 |  |  |  |
| v29460 humanized anti-NaPi2b antibody (H1L1) (antibody, human IgG1, kappa, V domains shown) VH: QVQLVQSGAEVKKPGASVKVSCKASGFTFTSYNVHWVRQAPGQGLEWMGAISPGNGDLSYAQKFQGRVTMTRDTSTSTVYMELSSLRSEDTAVYYCARGRTGMGAVDYWGQGTLVTVSS VL: DIQMTQSPSSLSASVGDRVTITCRASQDVYSYLNWYQQKPGKAPKLLIYYTSRLQSGVPSRFSGSGSGTDFTLTISSLQPEDFATYYCQQYNIFPWTFGQGTKLEIKR | 40100 | 1.67 |  |  |  |
| v29450 humanized anti-NaPi2b antibody (H3L3) (antibody, human IgG1, kappa, V domains shown) VH: QVQLVQSGAEVKKPGASVKMSCKASGFTFTSYNVHWVRQAPGQGLEWIAAISPGNGDLSYAQKFQGRATLTVDTSTSTAYMELSSLRSEDTAVYYCARGRTGMGAVDYWGQGTLVTVSS VL: DVQMTQSPSSLSASVGDRVTITCRASQDVYSYLNWYQQKPGKAVKLLIYYTSRLQSGVPSRFSGSGSGTDYTLTISSLQPEDIATYYCQQYNIFPWTFGQGTKLEIKR | 43800 | 0.96 |  |  |  |
| v29457 humanized anti-NaPi2b antibody (H4L1) (antibody, human IgG1, kappa, V domains shown) VH: QVQLVQSGAEVKKPGASVKMSCKASGFTFTSYNVHWVRQAPGQGLEWIAAISPGNGDLSYAQKFQGRATLTVDRSTSTAYMELSSLRSEDTAVYYCARGRTGMGAVDYWGQGTLVTVSS VL: DIQMTQSPSSLSASVGDRVTITCRASQDVYSYLNWYQQKPGKAPKLLIYYTSRLQSGVPSRFSGSGSGTDFTLTISSLQPEDFATYYCQQYNIFPWTFGQGTKLEIKR | 44500 | 1.73 |  |  |  |
| v29454 humanized anti-NaPi2b antibody (H3L2) (antibody, human IgG1, kappa, V domains shown) VH: QVQLVQSGAEVKKPGASVKMSCKASGFTFTSYNVHWVRQAPGQGLEWIAAISPGNGDLSYAQKFQGRATLTVDTSTSTAYMELSSLRSEDTAVYYCARGRTGMGAVDYWGQGTLVTVSS VL: DVQMTQSPSSLSASVGDRVTITCRASQDVYSYLNWYQQKPGKAVKLLIYYTSRLQSGVPSRFSGSGSGTDYTLTISSLQPEDFATYYCQQYNIFPWTFGQGTKLEIKR | 42300 | 0.92 |  |  |  |
| v29451 humanized anti-NaPi2b antibody (H2L3) (antibody, human IgG1, kappa, V domains shown) VH: QVQLVQSGAEVKKPGASVKVSCKASGFTFTSYNVHWVRQAPGQGLEWIAAISPGNGDLSYAQKFQGRVTMTVDTSTSTVYMELSSLRSEDTAVYYCARGRTGMGAVDYWGQGTLVTVSS VL: DVQMTQSPSSLSASVGDRVTITCRASQDVYSYLNWYQQKPGKAVKLLIYYTSRLQSGVPSRFSGSGSGTDYTLTISSLQPEDIATYYCQQYNIFPWTFGQGTKLEIKR | 46200 | 1.49 |  |  |  |
| v29453 humanized anti-NaPi2b antibody (H4L2) (antibody, human IgG1, kappa, V domains shown) VH: QVQLVQSGAEVKKPGASVKMSCKASGFTFTSYNVHWVRQAPGQGLEWIAAISPGNGDLSYAQKFQGRATLTVDRSTSTAYMELSSLRSEDTAVYYCARGRTGMGAVDYWGQGTLVTVSS VL: DVQMTQSPSSLSASVGDRVTITCRASQDVYSYLNWYQQKPGKAVKLLIYYTSRLQSGVPSRFSGSGSGTDYTLTISSLQPEDFATYYCQQYNIFPWTFGQGTKLEIKR | 44500 | 0.82 |  |  |  |
| v29449 humanized anti-NaPi2b antibody (H4L3) (antibody, human IgG1, kappa, V domains shown, Full-size IgG1/kappa) VH: QVQLVQSGAEVKKPGASVKMSCKASGFTFTSYNVHWVRQAPGQGLEWIAAISPGNGDLSYAQKFQGRATLTVDRSTSTAYMELSSLRSEDTAVYYCARGRTGMGAVDYWGQGTLVTVSS VL: DVQMTQSPSSLSASVGDRVTITCRASQDVYSYLNWYQQKPGKAVKLLIYYTSRLQSGVPSRFSGSGSGTDYTLTISSLQPEDIATYYCQQYNIFPWTFGQGTKLEIKR | 44500 | 0.79 |  |  |  |
| v29458 humanized anti-NaPi2b antibody (H3L1) (antibody, human IgG1, kappa, V domains shown) VH: QVQLVQSGAEVKKPGASVKMSCKASGFTFTSYNVHWVRQAPGQGLEWIAAISPGNGDLSYAQKFQGRATLTVDTSTSTAYMELSSLRSEDTAVYYCARGRTGMGAVDYWGQGTLVTVSS VL: DIQMTQSPSSLSASVGDRVTITCRASQDVYSYLNWYQQKPGKAPKLLIYYTSRLQSGVPSRFSGSGSGTDFTLTISSLQPEDFATYYCQQYNIFPWTFGQGTKLEIKR | 40800 | 1.39 |  |  |  |
| v29459 humanized anti-NaPi2b antibody (H2L1) (antibody, human IgG1, kappa, V domains shown) VH: QVQLVQSGAEVKKPGASVKVSCKASGFTFTSYNVHWVRQAPGQGLEWIAAISPGNGDLSYAQKFQGRVTMTVDTSTSTVYMELSSLRSEDTAVYYCARGRTGMGAVDYWGQGTLVTVSS VL: DIQMTQSPSSLSASVGDRVTITCRASQDVYSYLNWYQQKPGKAPKLLIYYTSRLQSGVPSRFSGSGSGTDFTLTISSLQPEDFATYYCQQYNIFPWTFGQGTKLEIKR | 40900 | 1.61 |  |  |  |
| v18993-DL1, lifastuzumab conjugated to MC-GGFG-AM-DXd1 (DAR 8) (antibody, human IgG1, kappa, MC-GGFG-AM-DXd1 (DL1) on cysteines freed by reduction; positions not given; MC-GGFG-AM-DXd1 (DL1) on cysteines freed by reduction; positions not given; DAR 8 for the whole antibody) heavy 1: GEVQLVESGGGLVQPGGSLRLSCAASGFSFSDFAMSWVRQAPGKGLEWVATIGRVAFHTYYPDSMKGRFTISRDNSKNTLYLQMNSLRAEDTAVYYCARHRGFDVGHFDFWGQGTLVTVSSASTKGPSVFPLAPSSKSTSGGTAALGCLVKDYFPEPVTVSWNSGALTSGVHTFPAVLQSSGLYSLSSVVTVPSSSLGTQTYICNVNHKPSNTKVDKKVEPKSCDKTHTCPPCPAPELLGGPSVFLFPPKPKDTLMISRTPEVTCVVVDVSHEDPEVKFNWYVDGVEVHNAKTKPREEQYNSTYRVVSVLTVLHQDWLNGKEYKCKVSNKALPAPIEKTISKAKGQPREPQVYVYPPSRDELTKNQVSLTCLVKGFYPSDIAVEWESNGQPENNYKTTPPVLDSDGSFALVSKLTVDKSRWQQGNVFSCSVMHEALHNHYTQKSLSLSPG heavy 2: not shown light: GDIQMTQSPSSLSASVGDRVTITCRSSETLVHSSGNTYLEWYQQKPGKAPKLLIYRVSNRFSGVPSRFSGSGSGTDFTLTISSLQPEDFATYYCFQGSFNPLTFGQGTKVEIKRTVAAPSVFIFPPSDEQLKSGTASVVCLLNNFYPREAKVQWKVDNALQSGNSQESVTEQDSKDSTYSLSSTLTLSKADYEKHKVYACEVTHQGLSSPVTKSFNRGEC |  |  | 5.45 | 3.45 |  |
| v18992-DL1, MX35 conjugated to MC-GGFG-AM-DXd1 (DAR 8) (antibody, human IgG1, kappa, MC-GGFG-AM-DXd1 (DL1) on cysteines freed by reduction; positions not given; MC-GGFG-AM-DXd1 (DL1) on cysteines freed by reduction; positions not given; DAR 8 for the whole antibody) heavy 1: GQVQLVQSGAEVVKPGASVKMSCKASGYTFTGYNIHWVKQAPGQGLEWIGAIYPGNGDTSYKQKFRGRATLTADTSTSTVYMELSSLRSEDSAVYYCARGETARATFAYWGQGTLVTVSSASTKGPSVFPLAPSSKSTSGGTAALGCLVKDYFPEPVTVSWNSGALTSGVHTFPAVLQSSGLYSLSSVVTVPSSSLGTQTYICNVNHKPSNTKVDKKVEPKSCDKTHTCPPCPAPELLGGPSVFLFPPKPKDTLMISRTPEVTCVVVDVSHEDPEVKFNWYVDGVEVHNAKTKPREEQYNSTYRVVSVLTVLHQDWLNGKEYKCKVSNKALPAPIEKTISKAKGQPREPQVYVYPPSRDELTKNQVSLTCLVKGFYPSDIAVEWESNGQPENNYKTTPPVLDSDGSFALVSKLTVDKSRWQQGNVFSCSVMHEALHNHYTQKSLSLSPG heavy 2: not shown light: GDIQMTQSPSSLSASVGDRVTITCSASQDIGNFLNWYQQKPGKTVKVLIYYTSSLYSGVPSRFSGSGSGTDYTLTISSLQPEDFATYYCQQYSKLPLTFGQGTKLELKRTVAAPSVFIFPPSDEQLKSGTASVVCLLNNFYPREAKVQWKVDNALQSGNSQESVTEQDSKDSTYSLSSTLTLSKADYEKHKVYACEVTHQGLSSPVTKSFNRGEC |  |  | 0.68 | 1.04 |  |
| v23855-DL3, v23855 conjugated to MC-VC-PABC-MMAE (DAR 4) (antibody, human IgG1, kappa, V domains shown, MC-VC-PABC-MMAE (DL3) on cysteines freed by reduction; positions not given; MC-VC-PABC-MMAE (DL3) on cysteines freed by reduction; positions not given; DAR 4 for the whole antibody) VH: QAYLQQSGAELVRPGASVKMSCKASGFTFTSYNVHWVKQTPRQGLEWIAAISPGNGDLSYNQRFKDKATLTVDRSSSTAYMQLSGLTSEDSAVYFCARGRTGMGAVDYWGQGTSVTVSS VL: DVQMTQTASSLSASLGDRVTISCRASQDVYSYLNWYQQKPHGTVKLLIYYTSRLQSGVPSRFTGSGSGTDYSLTISNLEPEDIATYYCQQYNIFPWTFGGGTKLEIKR |  |  | 0.2 | 0.18 | 0.05 |
